Test results from patent US20250099634A1, “METHOD OF TREATING CANCER” (Novartis AG, priority 2023, published 2025).
Like-named read-outs stand apart in the source and are kept apart here.

How the values were obtained:
[1] = NETTER-2 worst post-baseline biochemistry abnormalities based on CTC grades (Safety Set); format: in vivo, human
Excerpt: The laboratory assessments require that blood samples for hematology and blood chemistry, and a urine sample for urinalysis are taken. Laboratory assessments will be performed at the investigational site.
Blood tests performed 4 weeks after any treatment cannot serve as baseline values for the next treatment.
All laboratory data will be listed by treatment group, subject, and visit/time and if normal ranges are available abnormalities will be flagged. Summary statistics will be provided by treatment and visit/time. Shift tables using the low/normal/high/(low and high) classification will be used to compare baseline to the worst on-treatment value.
Grading of laboratory values will be assigned programmatically as per NCI Common Terminology Criteria for Adverse Events (CTCAE) version 5.0 or current version. The calculation of CTCAE grades will be based on the observed laboratory values only, clinical assessments will not be taken into account.
The following summaries will be generated separately for hematology, and biochemistry tests: • 1. Listing of all laboratory data with values flagged to show the corresponding CTCAE grades if applicable and the classifications relative to the laboratory normal ranges • 2. For laboratory tests where grades are defined by CTCAE, • 3. Worst post-baseline CTCAE grade (regardless of the baseline status). Each subject will be counted only once for the worst grade observed post-baseline. • 4. Shift tables using CTCAE grades to compare baseline to the worst on-treatment value • 5. For laboratory tests where grades are not defined by CTCAE, • 6. Shift tables using the low/normal/high/(low and high) classification to compare baseline to the worst on-treatment value.

[2] = All grades (CTCAE v5.0), randomized treatment period, Safety Set
[3] = All grades, randomized treatment period, Safety Set
[4] = Grade >=3, randomized treatment period, Safety Set
[5] = all grades, randomized treatment period
[6] = most frequent AEs, summary table

Structure (SMILES): C[C@@H](O)[C@H](NC(=O)[C@@H]1CSSC[C@H](NC(=O)[C@@H](Cc2ccccc2)NC(=O)CN2CCN(CC(=O)[O-])CCN(CC(=O)[O-])CCN(CC(=O)[O-])CC2)C(=O)N[C@@H](Cc2ccc(O)cc2)C(=O)N[C@H](Cc2c[nH]c3ccccc23)C(=O)N[C@@H](CCCCN)C(=O)N[C@@H]([C@@H](C)O)C(=O)N1)C(=O)O.[177Lu+3] [Lutathera, ^177Lu-DOTA^0-Tyr^3-Octreotate]
- Worst post-baseline abnormality: Bilirubin (umol/L)-Increase [1, 2]: 26 (17.7) n (%)
- Worst post-baseline abnormality: Creatinine (umol/L)-Increase [1, 2]: 30 (20.4) n (%)
- Worst post-baseline abnormality: Sodium (mmol/L)-Decrease [1, 2]: 32 (21.8) n (%)
- Worst post-baseline abnormality: Gamma Glutamyl Transferase (U/L)-Increase ([1]; Grade 3/4 (CTCAE v5.0), randomized treatment period, Safety Set): 38 (25.9) n (%)
- Grade 3/4 biochemical lab abnormality: aspartate aminotransferase increase ([1]; in vivo): 2.7%
- Grade 3/4 biochemical lab abnormality: bilirubin increase ([1]; in vivo): 2.7%
- Worst post-baseline abnormality: Alanine Aminotransferase (U/L)-Increase ([1]; in vivo): 6 (4.1) n (%)
- Worst post-baseline abnormality: Bilirubin (umol/L)-Increase ([1]; in vivo): 4 (2.7) n (%)
- Worst post-baseline abnormality: Creatinine (umol/L)-Increase ([1]; in vivo): 0 n (%)
- Worst post-baseline abnormality: Gamma Glutamyl Transferase (U/L)-Increase ([1]; in vivo): 102 (69.4) n (%)
- Worst post-baseline abnormality: Sodium (mmol/L)-Decrease ([1]; in vivo): 1 (0.7) n (%)
- Grade 3/4 biochemical lab abnormality: GGT increase ([1]; randomized treatment period): 25.9%
- AEs leading to discontinuation of Any Treatment (Lutathera, Octreotide) [3]: 7 (4.8) n (%)
- AEs leading to discontinuation of Lutathera [3]: 3 (2.0) n (%)
- AEs leading to discontinuation of Octreotide [3]: 5 (3.4) n (%)
- AEs leading to dose interruption of Any Treatment (Lutathera, Octreotide) [3]: 23 (15.6) n (%)
- AEs leading to dose interruption of Lutathera [3]: 14 (9.5) n (%)
- AEs leading to dose reduction of Any Treatment (Lutathera, Octreotide) [3]: 3 (2.0) n (%)
- AEs leading to dose reduction of Lutathera [3]: 2 (1.4) n (%)
- AEs leading to dose reduction of Octreotide [3]: 1 (0.7) n (%)
- AEs requiring additional therapy [3]: 109 (74.1) n (%)
- Adverse event: Abdominal pain [3]: 26 (17.7) n (%)
- Adverse event: Alanine aminotransferase increased [3]: 16 (10.9) n (%)
- Adverse event: Alopecia [3]: 22 (15.0) n (%)
- Adverse event: Anaemia [3]: 29 (19.7) n (%)
- Adverse event: Aspartate aminotransferase increased [3]: 16 (10.9) n (%)
- Adverse event: Asthenia [3]: 28 (19.0) n (%)
- Adverse event: COVID-19 [3]: 28 (19.0) n (%)
- Adverse event: Constipation [3]: 15 (10.2) n (%)
- Adverse event: Diarrhoea [3]: 38 (25.9) n (%)
- Adverse event: Fatigue [3]: 29 (19.7) n (%)
- Adverse event: Gamma-glutamyltransferase increased [3]: 12 (8.2) n (%)
- Adverse event: Headache [3]: 16 (10.9) n (%)
- Adverse event: Hyperglycaemia [3]: 20 (13.6) n (%)
- Adverse event: Lymphocyte count decreased [3]: 16 (10.9) n (%)
- Adverse event: Nausea [3]: 40 (27.2) n (%)
- Adverse event: Oedema peripheral [3]: 17 (11.6) n (%)
- Adverse event: Platelet count decreased [3]: 25 (17.0) n (%)
- Adverse event: Vomiting [3]: 21 (14.3) n (%)
- Adverse event: Weight increased [3]: 18 (12.2) n (%)
- Adverse events [3]: 136 (92.5) n (%)
- Adverse events Related to Amino Acids [3]: 22 (15.0) n (%)
- Adverse events Related to Any Treatment [3]: 101 (68.7) n (%)
- Adverse events Related to Lutathera [3]: 96 (65.3) n (%)
- Adverse events Related to Octreotide [3]: 55 (37.4) n (%)
- Adverse events: Number of subjects with at least one event [3]: 136 (92.5) n (%)
- AEs leading to discontinuation of Any Treatment (Lutathera, Octreotide) [4]: 4 (2.7) n (%)
- AEs leading to discontinuation of Lutathera [4]: 1 (0.7) n (%)
- AEs leading to discontinuation of Octreotide [4]: 3 (2.0) n (%)
- AEs leading to dose interruption of Any Treatment (Lutathera, Octreotide) [4]: 7 (4.8) n (%)
- AEs leading to dose interruption of Lutathera [4]: 3 (2.0) n (%)
- AEs leading to dose interruption of Octreotide [4]: 7 (4.8) n (%)
- AEs leading to dose reduction of Any Treatment (Lutathera, Octreotide) [4]: 1 (0.7) n (%)
- AEs leading to dose reduction of Lutathera [4]: 1 (0.7) n (%)
- AEs leading to dose reduction of Octreotide [4]: 0 n (%)
- AEs requiring additional therapy [4]: 28 (19.0) n (%)
- Adverse event: Abdominal pain [4]: 4 (2.7) n (%)
- Adverse event: Alanine aminotransferase increased [4]: 1 (0.7) n (%)
- Adverse event: Alopecia [4]: 0 n (%)
- Adverse event: Anaemia [4]: 1 (0.7) n (%)
- Adverse event: Aspartate aminotransferase increased [4]: 1 (0.7) n (%)
- Adverse event: Asthenia [4]: 1 (0.7) n (%)
- Adverse event: COVID-19 [4]: 0 n (%)
- Adverse event: Constipation [4]: 1 (0.7) n (%)
- Adverse event: Decreased appetite [4]: 0 n (%)
- Adverse event: Diarrhoea [4]: 2 (1.4) n (%)
- Adverse event: Fatigue [4]: 0 n (%)
- Adverse event: Gamma-glutamyltransferase increased [4]: 7 (4.8) n (%)
- Adverse event: Headache [4]: 0 n (%)
- Adverse event: Hyperglycaemia [4]: 0 n (%)
- Adverse event: Lymphocyte count decreased [4]: 8 (5.4) n (%)
- Adverse event: Nausea [4]: 1 (0.7) n (%)
- Adverse event: Oedema peripheral [4]: 0 n (%)
- Adverse event: Platelet count decreased [4]: 2 (1.4) n (%)
- Adverse event: Vomiting [4]: 1 (0.7) n (%)
- Adverse event: Weight increased [4]: 2 (1.4) n (%)
- Adverse event: White blood cell count decreased [4]: 3 (2.0) n (%)
- Adverse events [4]: 52 (35.4) n (%)
- Adverse events Related to Amino Acids [4]: 1 (0.7) n (%)
- Adverse events Related to Any Treatment [4]: 23 (15.6) n (%)
- Adverse events Related to Lutathera [4]: 22 (15.0) n (%)
- Adverse events Related to Octreotide [4]: 2 (1.4) n (%)
- Adverse events: Number of subjects with at least one event [4]: 52 (35.4) n (%)
- adverse event by preferred term: abdominal pain [5]: 17.7%
- adverse event by preferred term: diarrhoea [5]: 25.9%
- adverse event by preferred term: nausea [5]: 27.2%
- safety findings in NETTER-2 (consistent with established safety profile): No new or unexpected safety findings
- Incidence of AEs: Abdominal pain [6]: 26 (17.7) (%)
- Incidence of AEs: Diarrhoea [6]: 38 (25.9) (%)
- Incidence of AEs: Nausea [6]: 40 (27.2) (%)
- AEs leading to discontinuation of Lutathera (randomized treatment period): 2.0% vs. NA
- AEs leading to discontinuation of Lutathera and/or Octreotide (randomized treatment period): 4.8%
- AEs leading to discontinuation of Octreotide (randomized treatment period): 3.4%
- Any AEs (randomized treatment period): 92.5%
- Grade 3/4 AE: GGT increased (randomized treatment period): 4.8%
- Grade 3/4 AE: Lymphocyte count decreased (randomized treatment period): 5.4%
- Grade 3/4 AE: abdominal pain (randomized treatment period): 2.7%
- Grade 3/4 AE: small intestinal obstruction (randomized treatment period): 3.4%
- Grade ≥3 AEs (randomized treatment period): 35.4%
- Grade ≥3 AEs, Treatment-related (randomized treatment period): 15.6%
